Measured values: the supplement of paper PMC5998384

Experiments:
HeLa Kyoto [1] = assay: solubility in G1/S (NP-40 vs SDS abundance) (log2 ratio); higher = more soluble; conditions: cell cycle stage: G1/S
HeLa Kyoto [2] = assay: melting temperature (median over replicates), in situ; higher = more thermally stable
HeLa Kyoto [3] = assay: solubility change mitosis vs G1/S (difference of NP-40 vs SDS log2 ratios) (log2 ratio difference); higher = more soluble in mitosis
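For melting temperature (median over replicates), in situ in this document: HeLa Kyoto cells synchronized by double thymidine or nocodazole block, proteins quantified by TMT10plex mass spectrometry, three independent biological replicates.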
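For solubility change mitosis vs G1/S (difference of NP-40 vs SDS log2 ratios) in this document: synchronized HeLa Kyoto cells (double thymidine block for G1/S, nocodazole release for mitosis), protein amounts in NP-40 versus SDS lysates quantified by mass spectrometry, three biological replicates.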
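For solubility in G1/S (NP-40 vs SDS abundance) in this document: HeLa Kyoto cells arrested at G1/S by double thymidine block, proteins quantified by TMT10plex mass spectrometry in mild NP-40 versus SDS extracts, three biological replicates.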

Sequence | solubility in G1/S (log2) (HeLa Kyoto [1]) | melting temperature (HeLa Kyoto [2]; cell cycle stage: G1/S) | melting temperature (HeLa Kyoto [2]; cell cycle stage: mitosis) | solubility change mitosis (log2) (HeLa Kyoto [3])
MDPLFQQTHKQVHEIQSCMGRLETADKQSVHIVENEIQASIDQIFSRLERLEILSSKEPPNKRQNARLRVDQLKYDVQHLQTALRNFQHRRHAREQQERQREELLSRTFTTNDSDTTIPMDESLQFNSSLQKVHNGMDDLILDGHNILDGLRTQRLTLKGTQKKILDIANMLGLSNTVMRLIEKRAFQDKYFMIGGMLLTCVVMFLVVQYLT [GOSR2] | 0.00468 | 51.8 °C | 51.4 °C | 0.0667
MHRGVGPAFRVVRKMAASGAEPQVLVQYLVLRKDLSQAPFSWPAGALVAQACHAATAALHTHRDHPHTAAYLQELGRMRKVVLEAPDETTLKELAETLQQKNIDHMLWLEQPENIATCIALRPYPKEEVGQYLKKFRLFK [PTRHD1] | -0.278 | 55.6 °C | 52.6 °C | 0.625
MAGIPGLLFLLFFLLCAVGQVSPYSAPWKPTWPAYRLPVVLPQSTLNLAKPDFGAEAKLEVSSSCGPQCHKGTPLPTYEEAKQYLSYETLYANGSRTETQVGIYILSSSGDGAQHRDSGSSGKSRRKRQIYGYDSRFSIFGKDFLLNYPFSTSVKLSTGCTGTLVAEKHVLTAAHCIHDGKTYVKGTQKLRVGFLKPKFKDGGRGANDSTSAMPEQMKFQWIRVKRTHVPKGWIKGNANDIGMDYDYALLELKKPHKRKFMKIGVSPPAKQLPGGRIHFSGYDNDRPGNLVYRFCDVKDETYDLLYQQCDAQPGASGSGVYVRMWKRQQQKWERKIIGIFSGHQWVDMNGSPQDFNVAVRITPLKYAQICYWIKGNYLDCREG [PRSS23] | -0.403 | 53.2 °C | 53.6 °C | 0.203
MKGSNRNKDHSAEGEGVGKRPKRKCLQWHPLLAKKLLDFSEEEEEEDEEEDIDKVQLLGADGLEQDVGETEDDESPEQRARRPMNAFLLFCKRHRSLVRQEHPRLDNRGATKILADWWAVLDPKEKQKYTDMAKEYKDAFMKANPGYKWCPTTNKPVKSPTPTVNPRKKLWAFPSDSSRDLPSPKKAKTEEMPQLNFGMADPTQMGGLSMLLLAGEHALGTPEVSSGTCRPDVSESPELRQKSPLFQFAEISSSTSHSDASTKQCQTSALFQFAEISSNTSQLGGAEPVKRCGKSALFQLAEMCLASEGMKMEESKLIKAKESDGGRIKELEKGKEEKEIKMEKTDETRLQKEAEFEKSAKENLRDSKELRNFEALQIDDIMAIKMEDPKEIRKEELEEDHKCSHFPDFSYSASSKIIISDVPSRKDHMCHPHGIMIIEDPAALNKPEKLKKKKKKSKMDRHGNDKSTPKKTCKKRQSSESDIESVIYTIEAVAKGDWGIEKLGDTPRKKVRTSSSGKGSILDAKPPKKKVKSREKKMSKEKSSDTTKESRPPDFISISASKNISGETPEGIKAEPLTPMEDALPPSLSGQAKPEDSDCHRKIETCGSRKSERSCKGALYKTLVSEGMLTSLRANVDRGKRSSGKGNSSDHEGCWNEESWTFSQSGTSGSKKFKKTKPKEDCLLGSAKLDEEFEKKFNSLPQYSPVTFDRKCVPVPRKKKKTGNVSSEPTKTSKGPFQSQKKNLFHKIVSKYKHKKEKPNVPEKGSGDKWSNKQLFLDAIHPTEAIFSEDRNTMEPVHKVKNIPSIFNTPEPTTTQEPLVGSQKRKARKTKITHLVRTADGRVSPAGGTLDDKPKEQLQRSLPKATETDCNDKCSHNTEVGETRSSTPEMPAVSAFFSLAALAEVAAMENVHRGQRSTPLTHDGQPKEMPQAPVLISCADQ [BBX] | -0.353 | 47.4 °C | 50 °C | 0.277
MRCCHICKLPGRVMGIRVLRLSLVVILVLLLVAGALTALLPSVKEDKMLMLRREIKSQGKSTMDSFTLIMQTYNRTDLLLKLLNHYQAVPNLHKVIVVWNNIGEKAPDELWNSLGPHPIPVIFKQQTANRMRNRLQVFPELETNAVLMVDDDTLISTPDLVFAFSVWQQFPDQIVGFVPRKHVSTSSGIYSYGSFEMQAPGSGNGDQYSMVLIGASFFNSKYLELFQRQPAAVHALIDDTQNCDDIAMNFIIAKHIGKTSGIFVKPVNMDNLEKETNSGYSGMWHRAEHALQRSYCINKLVNIYDSMPLRYSNIMISQFGFPYANYKRKI [EXTL2] | 0.132 | 56.7 °C | 58.5 °C | -0.23
MGPPRHPQAGEIEAGGAGGGRRLQVEMSSQQFPRLGAPSTGLSQAPSQIANSGSAGLINPAATVNDESGRDSEVSAREHMSSSSSLQSREEKQEPVVVRPYPQVQMLSTHHAVASATPVAVTAPPAHLTPAVPLSFSEGLMKPPPKPTMPSRPIAPAPPSTLSLPPKVPGQVTVTMESSIPQASAIPVATISGQQGHPSNLHHIMTTNVQMSIIRSNAPGPPLHIGASHLPRGAAAAAVMSSSKVTTVLRPTSQLPNAATAQPAVQHIIHQPIQSRPPVTTSNAIPPAVVATVSATRAQSPVITTTAAHATDSALSRPTLSIQHPPSAAISIQRPAQSRDVTTRITLPSHPALGTPKQQLHTMAQKTIFSTGTPVAAATVAPILATNTIPSATTAGSVSHTQAPTSTIVTMTVPSHSSHATAVTTSNIPVAKVVPQQITHTSPRIQPDYPAERSSLIPISGHRASPNPVAMETRSDNRPSVPVQFQYFLPTYPPSAYPLAAHTYTPITSSVSTIRQYPVSAQAPNSAITAQTGVGVASTVHLNPMQLMTVDASHARHIQGIQPAPISTQGIQPAPIGTPGIQPAPLGTQGIHSATPINTQGLQPAPMGTQQPQPEGKTSAVVLADGATIVANPISNPFSAAPAATTVVQTHSQSASTNAPAQGSSPRPSILRKKPATDGAKPKSEIHVSMATPVTVSMETVSNQNNDQPTIAVPPTAQQPPPTIPTMIAAASPPSQPAVALSTIPGAVPITPPITTIAAAPPPSVTVGGSLSSVLGPPVPEIKVKEEVEPMDIMRPVSAVPPLATNTVSPSLALLANNLSMPTSDLPPGASPRKKPRKQQHVISTEEGDMMETNSTDDEKSTAKSLLVKAEKRKSPPKEYIDEEGVRYVPVRPRPPITLLRHYRNPWKAAYHHFQRYSDVRVKEEKKAMLQEIANQKGVSCRAQGWKVHLCAAQLLQLTNLEHDVYERLTNLQEGIIPKKKAATDDDLHRINELIQGNMQRCKLVMDQISEARDSMLKVLDHKDRVLKLLNKNGTVKKVSKLKRKEKV [SAP130] | 0.147 | 50.5 °C | 50 °C | -0.0185
MSAARESHPHGVKRSASPDDDLGSSNWEAADLGNEERKQKFLRLMGAGKKEHTGRLVIGDHKSTSHFRTGEEDKKINEELESQYQQSMDSKLSGRYRRHCGLGFSEVEDHDGEGDVAGDDDDDDDDSPDPESPDDSESDSESEKEESAEELQAAEHPDEVEDPKNKKDAKSNYKMMFVKSSGS [SMAP] | 0.338 | 55 °C | – | 0.413
MSQAEFEKAAEEVRHLKTKPSDEEMLFIYGHYKQATVGDINTERPGMLDFTGKAKWDAWNELKGTSKEDAMKAYINKVEELKKKYGI [DBI] | -0.236 | 53.7 °C | 53.8 °C | 0.148
MASKGPSASASPENSSAGGPSGSSNGAGESGGQDSTFECNICLDTAKDAVISLCGHLFCWPCLHQWLETRPNRQVCPVCKAGISRDKVIPLYGRGSTGQQDPREKTPPRPQGQRPEPENRGGFQGFGFGDGGFQMSFGIGAFPFGIFATAFNINDGRPPPAVPGTPQYVDEQFLSRLFLFVALVIMFWLLIA [RNF185] | 0.352 | 53.4 °C | – | -0.146
MEPAVSLAVCALLFLLWVRLKGLEFVLIHQRWVFVCLFLLPLSLIFDIYYYVRAWVVFKLSSAPRLHEQRVRDIQKQVREWKEQGSKTFMCTGRPGWLTVSLRVGKYKKTHKNIMINLMDILEVDTKKQIVRVEPLVTMGQVTALLTSIGWTLPVLPELDDLTVGGLIMGTGIESSSHKYGLFQHICTAYELVLADGSFVRCTPSENSDLFYAVPWSCGTLGFLVAAEIRIIPAKKYVKLRFEPVRGLEAICAKFTHESQRQENHFVEGLLYSLDEAVIMTGVMTDEAEPSKLNSIGNYYKPWFFKHVENYLKTNREGLEYIPLRHYYHRHTRSIFWELQDIIPFGNNPIFRYLFGWMVPPKISLLKLTQGETLRKLYEQHHVVQDMLVPMKCLQQALHTFQNDIHVYPIWLCPFILPSQPGLVHPKGNEAELYIDIGAYGEPRVKHFEARSCMRQLEKFVRSVHGFQMLYADCYMNREEFWEMFDGSLYHKLREKLGCQDAFPEVYDKICKAARH [DHCR24] | -0.264 | 51.3 °C | 52.3 °C | -0.166
MNNLNDPPNWNIRPNSRADGGDGSRWNYALLVPMLGLAAFRWIWSRESQKEVEKEREAYRRRTAAFQQDLEAKYHAMISENRRAVAQLSLELEKEQNRTASYREALISQGRKLVEEKKLLEQERAQVMQEKRQVQPLRSAYLSCLQREENWQRRARLLLKEFEAVLTERQNIYCSLFLPRSKRLEIEKSLLVRASVDPVAADLEMAAGLTDIFQHDTYCGDVWNTNKRQNGRLMWLYLKYWELVVELKKFKRVEEAILEK [CCDC127] | 0.0789 | 54 °C | 52.5 °C | 0.115
